Experimental findings from paper PMC2811017 are described below.

Experiment in all cases: ITC
For test [1], the target named is eRF1:eRF3 complex (human) (UniProt P62495).
The target of test [2] is full-length human eRF3a (GSPT1) (human).
Test [3] has the same target. The source holds these as a separate data set.

Like-named read-outs stand apart in the source and are kept apart here.

Take “human 6His cytoplasmic poly(A)-binding protein (PABP) (from UniProt P11940 1-636) (natural protein)”: in test [1], the Kd was determined as 700 nM, the dH is -26.3 kcal/mol and the stoichiometry N (PABP per eRF3) was 0.71. In test [2], the Kd came out at 700 nM, the dH was -30.3 kcal/mol and the stoichiometry N (PABP per eRF3) was 0.5.

Consider “human 6His eRF1 (from UniProt P62495 1-437) (natural protein)”, for which the Ka in test [3] is 1.1e+06 M⁻¹; in test [2] it was 4.4e+06 M⁻¹. The dH in test [3] was -10.8 kcal/mol; in test [2], -6.1 kcal/mol.
